Biological target: the molecule itself
Test: SAXS with online size exclusion

B1: ELF3 PrLD Q7 (prion-like domain of EARLY FLOWERING 3, residues 388-625, 7 glutamines, ecotype Columbia) (domain or fragment)
chain: LLPSEFLVKPPLPHVVVKQRGDSEKTDQHKMESSAENVVGRLSNQGHHQQSNYMPFANNPPASPAPNGYCFPPQPPPSGNHQQWLIPVMSPSEGLIYKPHPGMAHTGHYGGYYGHYMPTPMVMPQYHPGMGFPPPGNGYFPPYGMMPTIMNPYCSSQQQQQQQPNEQMNQFGHPGNLQNTQQQQQRSDNEPAPQQQQQPTKSYPRARKSRQGSTGSSPSGPQGISGSKSFRPFAAVDE
- binding result: binds

From publication doi:10.1101/2023.03.12.532276 (bioRxiv, 2023)
